Our source for the luciferase (LUC) signal of E-box-LUC in N. benthamiana leaves with PSK-GmPTF1 and PSK-GmSPX8 against PSK-GmPTF1 alone and β-galactosidase activity of yeast cells AH109 with pGBKT7-BD-GmPTF1 and pGADT7-AD-GmSPX8 against pGBKT7-BD-GmPTF1 alone values is PMC8973899.

In this experiment the target is BD-GmSPX8 (soybean (Glycine max)).

Substance AD-GmPTF1 (natural protein) registered a luciferase (LUC) signal of E-box-LUC in N. benthamiana leaves with PSK-GmPTF1 and PSK-GmSPX8 against PSK-GmPTF1 alone of 50%; a β-galactosidase activity of yeast cells AH109 with pGBKT7-BD-GmPTF1 and pGADT7-AD-GmSPX8 against pGBKT7-BD-GmPTF1 alone of 2 times.
